From patent US20190023792A1 (Innovent, published 2019)
Positions count from the first letter of the chain named. Names may count otherwise. Each block holds one molecule with its values, some of them ahead of it.

Key:
cynoPD-1_Fc (cyno) = cynoPD-1_Fc (cyno) (UniProt B0LAJ3); experiment: BLI (ForteBio), Fab in solution, cynoPD-1_Fc on sensor tip
[1] = molecular target: b-PD-1 monomer (human PD-1) (human) (UniProt Q15116); experiment: MSD solution equilibrium titration, avid KD
human PD-1 on cells [2] = molecular target: T1, human PD-1 on cells (human, UniProt Q15116 25-288); experiment: flow cytometry blocking assay, 100 nM control IgG on CHO cells with human PD-1, then PD-L2-FITC (remaining ligand signal)
human PD-1 on cells [3] = molecular target: T1, human PD-1 on cells; experiment: cell-based or functional assay
human PD-1 on cells [4] = molecular target: T1, human PD-1 on cells; experiment: cell-based or functional assay; remark: listed apart in the source
human PD-1 on cells [5] = molecular target: T1, human PD-1 on cells; experiment: flow cytometry on CHO cells with human PD-1, n=1
Description: Cells are then washed 3×, and are incubated with a secondary antibody (PE-labelled, at final concentration of 5 μg/ml) in PBS 1% BSA for 30 min on ice (protected from light). Cells are washed 3× and analyzed via flow cytometry. Flow cytometry is performed on an Accuri C6 system (BD Biosciences) and MFIs are calculated on the C6 software. EC50s are calculated on Graphpad software.

[6] = molecular target: T2, b-PD-1 monomer (human PD-1) (human, UniProt Q15116 25-167, limits assumed, biotinylated (b-PD-1; detected with streptavidin), site not stated); experiment: MSD solution equilibrium titration, avid KD
T2 construct: The antigen used for the avid KD is not described separately; also called antigen
Description: (§1) Equilibrium affinity measurements are performed as previously described (Estep, P., et al., MAbs, 2013.5 (2): p. 270-8). Solution equilibrium titrations (SET) are performed in PBS+0.1% IgG-Free BSA (PBSF) where antigen (b-PD-1 monomer) is held constant at 10-100 pM and is incubated with 3-to 5-fold serial dilutions of Fab or mAbs starting at 5-100 nM (experimental condition is sample dependent). Antibodies diluted at 20 nM in PBS are coated onto standard bind MSD-ECL plates overnight at 4° C. or at room temperature for 30 min. Plates are blocked with BSA for 30 min whilst shaking at 700 rpm. Plates are then washed 3× with wash buffer (PBSF+0.05% Tween 20). SET samples are applied and incubated on the plates for 150 s with shaking at 700 rpm followed by one wash. Antigen captured on a plate is detected with 250 ng/mL sulfotag-labeled streptavidin in PBSF by incubation on the plate for 3 min. The plates are washed three times with wash buffer and are then read on the MSD Sector Imager 2400 instrument using 1× Read Buffer T with surfactant. The percent free antigen is plotted as a function of titrated antibody in Prism and fit to a quadratic equation to extract the KD. To improve throughput, liquid handling robots are used throughout MSD-SET experiments, including for SET sample preparation.

[7] = molecular target: T2, b-PD-1 monomer (human PD-1); experiment: MSD solution equilibrium titration, monovalent KD
Description: as §1

human PD-1_His = molecular target: T3, human PD-1_His (human, UniProt Q15116 25-167, limits assumed); experiment: BLI (ForteBio), hPD-1_HIS in solution, IgG on sensor tip
T3 construct: also called hPD-1_HIS
Description: Briefly, ForteBio affinity measurements were performed by loading IgGs online onto AHQ sensors. Sensors were equilibrated off-line in assay buffer for 30 min and then monitored on-line for 60 seconds for baseline establishment. Sensors with loaded IgGs were exposed to 100 nM antigen for 5 min, afterwards they were transferred to assay buffer for 5 min for off-rate measurement. Kinetics was analyzed using the 1:1 binding model.

human PD-1 on cells [8] = molecular target: T1, human PD-1 on cells; experiment: flow cytometry blocking assay, 100 nM antibody on CHO cells with human PD-1, then PD-L2-FITC (remaining ligand signal)
Description: CHO cells 0.2×10⁶ are incubated with the experimental antibody (100 nM) for 30 min in PBS 1% BSA on ice. […] Cells are washed 3× and analyzed via flow cytometry. Flow cytometry is performed on an Accuri C6 system (BD Biosciences) and MFIs are calculated on the C6 software. EC50 s are calculated on Graphpad software.

human PD-1_Fc = molecular target: T4, human PD-1_Fc (human, UniProt Q15116 25-167, limits assumed); experiment: BLI (ForteBio), Fab in solution, hPD-1_Fc on sensor tip
T4 construct: also called hPD-1_Fc

cynoPD-1_Fc = cynoPD-1_Fc (cyno, UniProt B0LAJ3 25-170); experiment: BLI (ForteBio), Fab in solution, cynoPD-1_Fc on sensor tip
Sequence of cynoPD-1_Fc (B0LAJ3 entry or part of it limits assumed): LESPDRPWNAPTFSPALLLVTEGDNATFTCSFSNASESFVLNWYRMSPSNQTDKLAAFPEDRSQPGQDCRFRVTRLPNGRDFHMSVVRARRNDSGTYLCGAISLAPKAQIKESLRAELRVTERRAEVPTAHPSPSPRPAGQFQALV

T3 sequence (Q15116 25-167 limits assumed): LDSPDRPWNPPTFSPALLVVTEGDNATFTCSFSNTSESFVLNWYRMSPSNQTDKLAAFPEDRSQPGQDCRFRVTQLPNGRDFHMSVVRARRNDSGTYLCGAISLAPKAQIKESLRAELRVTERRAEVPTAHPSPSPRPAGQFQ
T2 sequence (Q15116 25-167 limits assumed): as above
T4 sequence (Q15116 25-167 limits assumed): as above
T1 sequence (Q15116 25-288 limits assumed): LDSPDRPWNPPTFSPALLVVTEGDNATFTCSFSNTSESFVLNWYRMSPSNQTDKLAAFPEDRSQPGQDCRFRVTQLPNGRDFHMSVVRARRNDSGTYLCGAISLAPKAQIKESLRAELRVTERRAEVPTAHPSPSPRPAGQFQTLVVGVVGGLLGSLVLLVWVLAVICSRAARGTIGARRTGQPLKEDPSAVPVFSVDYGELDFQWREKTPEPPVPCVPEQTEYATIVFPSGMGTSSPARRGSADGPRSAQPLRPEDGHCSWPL
Sequence of cynoPD-1_Fc (cyno) (B0LAJ3 entry or part of it limits assumed): as the sequence (B0LAJ3 entry or part of it limits assumed) above
Sequence of b-PD-1 monomer (human PD-1) (human) (Q15116 25-167 limits assumed): as the sequence (Q15116 25-167 limits assumed) above

Kd (human PD-1_Fc): 860 pM | Kd (cynoPD-1_Fc): 1000 pM
B5: xd-16 E, Fab format produced from IgG1 expressed in yeast (Fab, V domains shown)
VH: QVQLVQSGAEVKKPGSSVKVSCKASGGTFSSTAISWVRQAPGQGLEWMGGIWPSFGTANYARKFQGRVTITADESTSTAYMELSSLRSEDTAVYYCARAEYSSTGIFDYWGQGTLVTVSS
VL: DIQMTQSPSSVSASVGDRVTITCRASQGISSWLAWYQQKPGKAPKLLISAASSLQSGVPSRFSGSGSGTDFTLTISSLQPEDFATYYCQQANHLPFTFGGGTKVEIK
notes: Fab produced from the yeast IgG1

Kd [6]: 1.3 pM | Kd [7]: 93 pM | Kd (human PD-1_His): 650 pM | MFI (PD-L2-FITC) (human PD-1 on cells [8]): 40000 MFI
B6: xd-16 D, IgG1 format expressed in yeast (antibody, V domains shown)
VH: B5 VH with G56D, R62Q, Q65R, I106T
VL: B5 VL
notes: Tested as IgG1 expressed in yeast; also called Antibody D

Kd [6]: ~0.9 pM | Kd [7]: 150 pM | Kd (human PD-1_His): 560 pM | MFI (PD-L2-FITC) (human PD-1 on cells [8]): 40900 MFI
B7: xd-16 E, IgG1 format expressed in yeast (antibody, V domains shown)
VH: B5 VH
VL: B5 VL
notes: Tested as IgG1 expressed in yeast; also called Antibody E

Kd (human PD-1_Fc): 990 pM | Kd (cynoPD-1_Fc): 1200 pM
B10: xd-16 D, Fab format produced from IgG1 expressed in yeast (Fab, V domains shown)
VH: B5 VH with G56D, R62Q, Q65R, I106T
VL: B5 VL
notes: as for B5

Continued, molecule first:

Molecule: pembrolizumab Fab
Kd (cynoPD-1_Fc (cyno)): 470 pM

Molecule: nivolumab (antibody)
Kd [1]: 5 pM

Molecule: nivolumab Fab
Kd (cynoPD-1_Fc (cyno)): 1200 pM

Molecule: control IgG (antibody)
MFI (PD-L2-FITC) (human PD-1 on cells [2]): 183000 MFI

B1: Antibody B S228P IgG4 (xd-16 B) (antibody, V domains shown)
VH: B5 VH with N59S, R62Q
VL: DIQMTQSPSSVSASVGDRVTITCRASQGISSWLAWYQQKPGKAPKLLISAASSLQSGVPSRFSGSGSGTDFTLTISSLQPEDFATYYCQQANHLPFTFGGGTKVEIKR
notes: also called xd-16 B (IgG4 S228P); xd-16 B IgG4
IL-2 secretion fold change vs. IgG control, 0.01 nM IgG (human PD-1 on cells [3]): 1.15 fold | IL-2 secretion fold change vs. IgG control, 0.1 nM IgG (human PD-1 on cells [3]): 1.46 fold | IL-2 secretion fold change vs. IgG control, 1 nM IgG (human PD-1 on cells [3]): 2.18 fold | IL-2 secretion fold change vs. IgG control, 10 nM IgG (human PD-1 on cells [3]): 2.39 fold | IL-2 secretion fold change vs. IgG control, 100 nM IgG (human PD-1 on cells [3]): 2.37 fold | IFNg secretion fold change vs. IgG control, 0.01 nM IgG (human PD-1 on cells [4]): 1.09 fold | IFNg secretion fold change vs. IgG control, 0.1 nM IgG (human PD-1 on cells [4]): 1.59 fold | IFNg secretion fold change vs. IgG control, 1 nM IgG (human PD-1 on cells [4]): 2.15 fold | IFNg secretion fold change vs. IgG control, 10 nM IgG (human PD-1 on cells [4]): 2.17 fold | IFNg secretion fold change vs. IgG control, 100 nM IgG (human PD-1 on cells [4]): 1.9 fold | EC50 (human PD-1 on cells [5]): 1460 pM

B2: xd-16 B, IgG1 format expressed in yeast (antibody, V domains shown)
VH: B5 VH with N59S, R62Q
VL: B5 VL
notes: Tested as IgG1 expressed in yeast; also called Antibody B
Kd [6]: ~0.9 pM | Kd [7]: 45 pM | Kd (human PD-1_His): 420 pM | MFI (PD-L2-FITC) (human PD-1 on cells [8]): 26400 MFI

B3: xd-16 B, Fab format produced from IgG1 expressed in yeast (Fab, V domains shown)
VH: B5 VH with N59S, R62Q
VL: B5 VL
notes: as for B5
Kd (human PD-1_Fc): 630 pM | Kd (cynoPD-1_Fc): 780 pM

B4: xd-16 C, Fab format produced from IgG1 expressed in yeast (Fab, V domains shown)
VH: B5 VH with N59S, R62Q, Q65R, I106T
VL: B5 VL
notes: as for B5
Kd (human PD-1_Fc): 570 pM | Kd (cynoPD-1_Fc): 730 pM

B8: Antibody D S228P IgG4 (xd-16 D) (antibody, V domains shown)
VH: B5 VH with G56D, R62Q, Q65R, I106T
VL: B1 VL
notes: also called xd-16 D (IgG4 S228P); xd-16 D IgG4
EC50 (human PD-1 on cells [5]): 1470 pM

B9: xd-16 C, IgG1 format expressed in yeast (antibody, V domains shown)
VH: B5 VH with N59S, R62Q, Q65R, I106T
VL: B5 VL
notes: Tested as IgG1 expressed in yeast; also called Antibody C
Kd [6]: 2.5 pM | Kd [7]: 50 pM | Kd (human PD-1_His): 380 pM | MFI (PD-L2-FITC) (human PD-1 on cells [8]): 26500 MFI
